Results: publication PMC5667893, “TRIM5α SPRY/coiled-coil interactions optimize avid retroviral capsid recognition” (PLoS Pathogens, 2017)

How the values were obtained:
[1] = molecular target: disulfide-stabilized HIV-1 CA tubes (HIV-1); assay: co-sedimentation; purified TRIM5-21R (5 μM) incubated with disulfide-stabilized HIV-1 CA tubes, fractionated by centrifugation, load, soluble and pellet fractions on SDS-PAGE with Coomassie staining, densitometry; done right after purification
[2] = molecular target: TRIM5-21R F187A (human | rhesus); assay: anion exchange chromatography + SEC; relative fractions of monomer and dimer of TRIM5-21R proteins during purification; linear salt gradient; dimer to monomers
[3] = molecular target: TRIM5-21R L190A (human | rhesus); assay: as above
[4] = molecular target: the molecule itself; assay: SEC-MALS; purified CC-L2 proteins, 50 μL injected at 0.5–1 mg/mL; dimer to monomers

| Molecule | percent in the pellet with the CA tubes [1] | stoichiometry N [4] | other results |
| --- | --- | --- | --- |
| TRIM5-21R (rhesus TRIM5α with its RING domain replaced by that of human TRIM21), wildtype |  |  | percent co-pelleted with the CA tubes [1]: 50% |
| TRIM5-21R D186A | 36% |  |  |
| TRIM5-21R E197A | 61% |  |  |
| TRIM5-21R F187A |  |  | monomer fraction of the total protein [2]: > 50% |
| TRIM5-21R L190A | 34% |  | monomer fraction of the total protein [3]: > 50% |
| TRIM5-21R L194A | 29% |  |  |
| CC-L2 fragment of rhesus TRIM5α (residues 133–300) E197A (domain or fragment, UniProt Q0PF16 133-300, looked up, TRIM5α, rhesus, coiled-coil and L2 linker, residues 133-300; dimeric with a trailing shoulder of monomer by SEC-MALS; also called CC-L2 E197A; source: E. coli BL21(DE3), autoinduction, purified (Ni-NTA, anion exchange, size exclusion); not shown: His, N-terminal, cleaved; SUMO, N-terminal, cleaved) MEEVAQEYHVKLQTALEMLRQKQQEAEKLEADIREEKASWKIQIDYDKTNVSADFEQLREILDWAESNELQNLEKEEEDILKSLTKSETEMVQQTQYMRELISELEHRLQGSMMDLLQGVDGIIKRIENMTLKKPKTFHKNQRRVFRAPDLKGMLDMFRELTDARRYW |  | 2 |  |
| CC-L2 fragment of rhesus TRIM5α (residues 133–300), wildtype (domain or fragment, UniProt Q0PF16 133-300, looked up, TRIM5α, rhesus, coiled-coil and L2 linker, residues 133-300; His-SUMO leader cleaved with Ulp1 protease; also called TRIM5α_(133–300); wildtype control; source: E. coli BL21(DE3), autoinduction, purified (Ni-NTA, anion exchange, size exclusion); not shown: His, N-terminal, cleaved; SUMO, N-terminal, cleaved) MEEVAQEYHVKLQTALEMLRQKQQEAEKLEADIREEKASWKIQIDYDKTNVSADFEQLREILDWEESNELQNLEKEEEDILKSLTKSETEMVQQTQYMRELISELEHRLQGSMMDLLQGVDGIIKRIENMTLKKPKTFHKNQRRVFRAPDLKGMLDMFRELTDARRYW |  | 2 |  |
| CC-L2 fragment of rhesus TRIM5α (residues 133–300) I193A (domain or fragment, UniProt Q0PF16 133-300, looked up, TRIM5α, rhesus, coiled-coil and L2 linker, residues 133-300; also called CC-L2 I193A; source: E. coli BL21(DE3), autoinduction, purified (Ni-NTA, anion exchange, size exclusion); not shown: His, N-terminal, cleaved; SUMO, N-terminal, cleaved) MEEVAQEYHVKLQTALEMLRQKQQEAEKLEADIREEKASWKIQIDYDKTNVSADFEQLREALDWEESNELQNLEKEEEDILKSLTKSETEMVQQTQYMRELISELEHRLQGSMMDLLQGVDGIIKRIENMTLKKPKTFHKNQRRVFRAPDLKGMLDMFRELTDARRYW |  | 2 |  |
| CC-L2 fragment of rhesus TRIM5α (residues 133–300) E201A (domain or fragment, UniProt Q0PF16 133-300, looked up, TRIM5α, rhesus, coiled-coil and L2 linker, residues 133-300; also called CC-L2 E201A; source: E. coli BL21(DE3), autoinduction, purified (Ni-NTA, anion exchange, size exclusion); not shown: His, N-terminal, cleaved; SUMO, N-terminal, cleaved) MEEVAQEYHVKLQTALEMLRQKQQEAEKLEADIREEKASWKIQIDYDKTNVSADFEQLREILDWEESNALQNLEKEEEDILKSLTKSETEMVQQTQYMRELISELEHRLQGSMMDLLQGVDGIIKRIENMTLKKPKTFHKNQRRVFRAPDLKGMLDMFRELTDARRYW |  | 2 |  |
| CC-L2 fragment of rhesus TRIM5α (residues 133–300) D186A (domain or fragment, UniProt Q0PF16 133-300, looked up, TRIM5α, rhesus, coiled-coil and L2 linker, residues 133-300; also called CC-L2 D186A; source: E. coli BL21(DE3), autoinduction, purified (Ni-NTA, anion exchange, size exclusion); not shown: His, N-terminal, cleaved; SUMO, N-terminal, cleaved) MEEVAQEYHVKLQTALEMLRQKQQEAEKLEADIREEKASWKIQIDYDKTNVSAAFEQLREILDWEESNELQNLEKEEEDILKSLTKSETEMVQQTQYMRELISELEHRLQGSMMDLLQGVDGIIKRIENMTLKKPKTFHKNQRRVFRAPDLKGMLDMFRELTDARRYW |  | 2 |  |
